Patent US8748407B2 (The Research Foundation for the State University of New York, priority 2010, dated 2014)

Target: T1, GluA2Qflip (Rattus norvegicus, UniProt P19491)
T1 construct: expressed in transfected cells; host or cells: HEK-293S
Assay: Whole-cell current recording, GluA2Qflip in HEK-293 cells
Assay type: cell-based
Source text: The original cDNAs in pBlueScript encoding rat GluA1, 2 and 3 AMPA receptors and GluK2 kainate receptor were kindly provided by Steve Heinemann. The GluA4 DNA plasmid was kindly provided by Peter Seeburg. The GluK1 plasmid was kindly provided by Geoffrey Swanson. The cDNAs of all three NMDA receptor subunits were gifts from John Woodward. All DNA plasmids were propagated using Escherichia coli host (DH5α) and purified using QIAGEN DNA purification kits.
All of the receptors were transiently expressed in HEK-293S cell. HEK-293S cells were maintained in Dulbecco's modified Eagle's medium (DMEM) supplemented with 10% fetal bovine serum and 1% penicillin in a 37° C., 5% CO2, humidified incubator. Receptors were transiently transfected by using calcium phosphate or lipofectamine 2000 (Invitrogen). The DNA plasmids encoding green fluorescent protein (GFP) and T-antigen (TAg) were cotransfected in HEK-293 S cells. GFP was used as a transfection marker for cell recording, and TAg was cotransfected to potentiate the receptor expression at the single-cell level^6. Transfected cells were allowed to grow for 48 hour before they were used for recording.
The procedure for whole-cell current recording to assay the inhibitory property of an RNA aptamer is known to those of skill in the art and has been previously described^7. […] The extracellular buffer composition is described above (see “Receptor Preparation”). For recording of the NMDA channels, the intracellualr solution contained (in mM) 140 CsCl, 1 MgCl2, 0.1 EGTA, and 10 HEPES (pH 7.2 adjusted by […]), while the extracellular solution contained (in mM) 135 NaCl, 5.4 KCl, 1.8 CaCl2, 10 glucose and 5 HEPES (pH 7.2 adjusted by NaOH). In the extracellular buffer, 2 μM of glycine was added (glycine was the co-agonist of NMDA receptor)^2. All reagents including aptamer were dissolved in the corresponding extracellular buffer and used. […] The whole-cell current was recorded using an Axopatch-200B amplifier at a cutoff frequency of 2-20 kHz by a built-in, eight-pole Bessel filter and digitized at 5-50 kHz sampling frequency using a Digidata 1322A from Axon Instruments (Molecular Devices, Sunnyvale, Calif.). The pClamp 8 software (Molecular Devices) was used for data acquisition. All whole-cell recordings were at −60 mV and 22° C.
To deliver AG56 to a HEK-293 cell, a “Ψ”-shaped flow device was used. […] In all experiments reported in this study, a 6-second preincubation flow protocol was used for full aptamer preincubation. […] The corrected current amplitude was used for data analysis.
Determination of KI,app by the ratio of the current amplitude in the absence and presence of inhibitor or A/A(I)—see FIG. 5 in the text. Equ. 10a and 10b were derived based on one inhibitor binding to the receptor. KI, app is the apparent inhibition constant for the inhibitor; other terms have been defined previously.
Under this condition, the inhibition constant for the closed-channel conformation was determined from the ratio of the amplitude according to equ. 10a and 10b. Likewise, at a saturating ligand concentration (i.e., L>>K1), the majority of the receptors were in the open-channel state. Consequently, the inhibition constant associated with the open-channel conformation was measured. The basis of using the two ligand concentrations that corresponded to ˜4% and ˜96% fraction of the open-channel receptor form^7 to determine the corresponding inhibition constant was a putative difference in inhibition constant between the closed-channel and the open-channel conformation. At those low and high ligand concentrations^7, the apparent inhibition constants obtained were considered pertinent to the closed-channel and the open-channel conformations, respectively. Examples of using the current amplitude to determine the inhibition constant for an inhibitor include our previous study of two 2,3-benzodiazepine derivatives with the GluA2Qflip AMPA receptor^15.

T1 sequence (P19491 22-883 isoform P19491-2): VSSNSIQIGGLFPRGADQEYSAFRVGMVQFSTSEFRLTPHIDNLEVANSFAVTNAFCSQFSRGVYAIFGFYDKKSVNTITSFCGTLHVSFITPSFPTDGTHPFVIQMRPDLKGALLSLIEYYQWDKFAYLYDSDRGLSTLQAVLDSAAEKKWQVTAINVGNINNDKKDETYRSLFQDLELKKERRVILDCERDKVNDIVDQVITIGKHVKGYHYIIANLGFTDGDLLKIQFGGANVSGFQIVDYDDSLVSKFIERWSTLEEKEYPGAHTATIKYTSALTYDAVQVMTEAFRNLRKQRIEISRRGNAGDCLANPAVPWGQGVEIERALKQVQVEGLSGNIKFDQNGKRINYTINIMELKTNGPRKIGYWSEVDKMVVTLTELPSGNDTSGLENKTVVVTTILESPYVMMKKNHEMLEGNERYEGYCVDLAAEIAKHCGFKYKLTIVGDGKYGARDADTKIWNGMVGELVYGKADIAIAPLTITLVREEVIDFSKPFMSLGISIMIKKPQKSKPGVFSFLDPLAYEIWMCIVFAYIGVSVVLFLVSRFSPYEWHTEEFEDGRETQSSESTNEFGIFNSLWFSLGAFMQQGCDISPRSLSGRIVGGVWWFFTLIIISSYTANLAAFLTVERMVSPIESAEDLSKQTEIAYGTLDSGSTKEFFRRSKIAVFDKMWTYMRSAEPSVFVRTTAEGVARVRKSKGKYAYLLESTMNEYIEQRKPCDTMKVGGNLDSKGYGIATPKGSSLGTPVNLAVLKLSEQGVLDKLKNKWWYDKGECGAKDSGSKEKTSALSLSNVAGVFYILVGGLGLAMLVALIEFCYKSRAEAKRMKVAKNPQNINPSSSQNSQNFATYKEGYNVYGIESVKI

Row | Molecule | inhibitory function of shorter versions of AG1407, based on A/A(I) (GluA2Qflip) | A/A(I) value (0.5 μM AG1407, 0.5 mM glutamate) | A/A(I) value (0.5 μM AG1407, 3 mM glutamate) | A/A(I), ratio of current amplitudes in absence and presence of aptamer (500 nM aptamer, 3 mM glutamate) | inhibition of the open-channel conformation (GluA2Qflip, high glutamate concentration)
1 | 45 nt RNA: truncated AG1407 version with the bulge at the U50 position removed (GGUUCAACUGCCAUCUAGGCAGAUUGUGAAGCGUAGGCUCGAGCC; listed as RNA, chemistry not given here) | total loss of inhibitory function |  |  |  | 
2 | 46 nt RNA: truncated AG1407 version with three-way junction shortened by deleting UUGUGA sequence (GGAGAAUCAACUGCCAUCUAGGCAGAAGCGUAGGCUCGAUUUGUCC; listed as RNA, chemistry not given here) | total loss of inhibitory function |  |  |  | 
3 | 48 nt RNA: truncated AG1407 version with base-paired stem in first stem-loop region truncated (GGAGAAUCAACUCAUCUAGAGAUUGUGAAGCGUAGGCUCGAUUUGUCC; listed as RNA, chemistry not given here) | total loss of inhibitory function |  |  |  | 
4 | AG1407: full length 100-nt RNA aptamer, most enriched SELEX sequence against GluA2Qflip (nucleic acid, RNA, backbone not given here) GGGAGAAUUCAACUGCCAUCUAGGCAGAUUGUGAAGCGUAGGCUCGAGUUUGUCCCGCGAGCCAAAGAUUCCAGAAGUACUACAAGCUUCUGGACUCGGU |  | significantly larger than 1.0 | significantly larger than 1.0 | one of the most potent inhibitors | inhibited the open-channel
